Experimental data: the DeepSol protein solubility set

Test: soluble on expression in E. coli; label from the status in PepcDB or PDB records
In the case of “MGSDKIHHHHHHMKRLSPEVFKVPIDRIRNGYYSDIYFINYVKVLKRDSRHPRVYYQFFPRKDAVICGIDEALAILKFCTGYYKDEEKARELFEEILKLDKEMQAASVEMDVQKILELTQKKWDLRLKLNDLWVDKWDEIEVHALYDGEEAKEGEPIMTIEGDPTYFGYLETVLLGVIARATSTATAVKKVVKAARGKPVLFFSARFDHYWVQATDGYAALKAGAFGVSTDANADYWGVKSMGTMPHALIACYDGKTEDAAIAFDRHMEEDVNRIVLVDWDNDVIGTTFRVIEKFYEYVMKKPFKLGVTDPSPIIGPGKNKIWGVRFDTSGNLRDKSVVPKDESSFGVCPELVWRARQEFDKVGLRDLKIVVSGGFDEKKIDLFERLGVPADAYGVGSRLLREKVDITADIVEVNGRHCAKVGRYKIENPRLKKVGKRYWEEE”, the “soluble on expression in E. coli” value is reported as “not soluble”. With “MGSDKIHHHHHHMKRMSCLLLGGLLLSGCGKEEAPPEPIRPVVFVEAQPESMQDFGRFAGNIQARYQSVLGFRVAGRIARRNVDVGSEVKKGDLLATLDPTDQQNNVRGRQGDLANVQAQWINAQANARRQQELFDRGVGAQAQLDVALTDLKTASSSLEQAKAAEQQARDQLSYSELHSDHDAVVTEWKVEAGQVVTAGQEVVTLARPDIKEAVIDLPDALADQLPRDVVFTVASQLNPDINTTATIREIEPQADRTTRTRRTRLSLAETPVAFRLGTAISVTLSSTITARMRLPINALQEVDGKRQIWIVDPQSQTVNPRAVNITSRDNDSFVLADGVKAGEKVVSAGVNSLKPGQKVKVDEESPR” the “soluble on expression in E. coli” value was “not soluble”. With “MGSDKIHHHHHHMKSCLYFTFIVLFLTACSTKNLTSLHRENLEQKNENQHYVKLEYEQNVNILPQFAYDINFDAKRYKKYFFNPWHDSFKNYKGQNIFWSFPLYLNSKNTYYFFNKQIIPLSWFKNAINNANIQEFGKLNQKALIIQNTIIKNLPTQRAILKNPFFENEGIPFDYASDGILNTGAPVLISHFSKDKRYAFVLGEAGFGFVESKNLEFFSNDRAKIYENLNFITPLKEKFAIYSEDGKFLFESRIGAIYPYYKEDKNYFYGKIGSKKYKISKKDVSKFPLQFNDKNLKNQLSQVLNLPYGWGGYNFERDCSLLTRDIFSAFGLYLPRNSAAQKNSFNHFDISTLSNSQKKDFLNRFGKAYLSLLYLPGHIMLYAGQITDNNIAIHNIWGLRKDATQRLLISSSVITSLEIGKNEILEDNLLLSRLKEISFINLNEQEKEQIKSYLENIQNK” the “soluble on expression in E. coli” value was “not soluble”. With “MGSDKIHHHHHHMKSPCILLIIVCTLSLTGCASTKQADSDSSLGKAQQTLDSLYQHYSAKDSYLLRENYPFNEQYKVTYLASENQTNMPNQFSYLWPYSGTFSAVNSLLEATHDKKYQQLLEKQVLPGLEEYFDTERTPIAYSSYIRTAPTSDRFYDDNIWVGIDFIDIYQITKEKKYLDKAQLIWNFIESGTDSLLGDGIYWCEQKKESKNTCSNAPGSVFALKLFKATNDSLYFKRGKELYKWTQKNLQDSTDYLYFDNIRLDGKIGKAKFAYNSGQMMQSAALLYQLTKNPDYLKDAQSIAKECYNYFFTDFTTDTGESLKMLKQGNIWFTAVMLRGFIELYQLDQNKTFIDAFNQCLSYAWDNARDENGLFSTDLTGNNNNEKKWLLTQAAMVEMYSRLATIQ” the “soluble on expression in E. coli” value was “not soluble”. In the case of “MGSDKIHHHHHHMKTFHNEEIYIKTDNFSDSIFKENTMFFDIETTGFSPVKAIVYMIGCARRIKNRIVIDQYFAESVDDEAAVIEAFAGSLSGCSTIISFNGVGFDIPFLKNKYKKYKQEDPFCNVQILDIFKELSPIKPLLCLENYKQKSIEAFLGIDREDKYSGGELINVYYEYLAQKDDEKLSLLLTHNYEDVLGMTKLLSILSYKECIHGIADITGVSVNPYTAYDGSLMNELIISFENKFSVPKSVSFHDNDIYLTIGTTKSYVRAEIFEGEMRHFYSDYKNYYYLPKEDMAIHKSVAAYVDHEYREKCKAYNCYVRKTGTFIRQYSDFMKPEFRFDIKDKYSYFLLTEDFINSKQMVLSYVKHITDHLFNL”, the “soluble on expression in E. coli” value is reported as “not soluble”. In the case of “MGSDKIHHHHHHMKTIEVLSLRKYFPIRKGFLVKKIVGYVKAVDDISFSVEKGKTFALVGESGCGKTTTAKTILRLTNPTAGRVVIDGDDTTYYFMKRRDAENYLETTYVDIFREMREKLSPDQIVDVLEDVDKKYAEIFFKEAKESEEKFYQILLDDIDEKRMKFRRKIQIVFQDPMSSLNPRMTVGDILTEPILFHGLAKTREEAVDMAKDLLKSVGLKEYHLERYPHQFSGGQRQRIAIARAISINPEIVILDEPTASLDVSVQAQVINLFLKLQEEKGFTYLFISHDLGLVRFISHEVGIMYLGRIVEMGNTDEIFDNPLHPYTQALLSAVPVPDPKVERTRKRIILRGGVPSPINRPTGCFFHPRCPYKMPVCEKEYPVMKEISPGHWVACHLHSS”, the “soluble on expression in E. coli” value is reported as “not soluble”. In the case of “MGSDKIHHHHHHMKTIQPIDWLQPKTEAEEIRFRSTGFRWGNKGTHTSRTIMLDELRALLNYSRPDATRDDYVSVIIEDNCLGKRTASTRKLSLQRLSELYALDPKVLLFQLMRYFWYADRSGQAILPLLLALARDPLLRATAASVLCMHPGEEFARQPMTDALNQAAGGRFNEGTLNKIVRNAASSWTQTGHLKGRSHKVRQSIAPTAITTAYALLLGYLTGTRGAKLFETPWAQALDTPPSTLMHLAMDARRLGFLDMSQSGGIVELGFSRLLPLDERR”, the “soluble on expression in E. coli” value is reported as “not soluble”. With “MGSDKIHHHHHHMKTLGERSKERRKIINLTQLQLSKKVGVSSVTISQWESGDTSPKGENLYKLAQALQCSPDWLMFGDSKNTKKPESNAEWAGGFDLWDNDSPLGEDEVEIPFYMDVELSAGEGIAEGVEYKGPKLRFAKSSLKRQGVNTDHAACVKVNGNSMEPVLPHGSTVGVDTSATEIVDGKMYAINHDGMMRVKMLYKLPGGGLRLRSYNTDEWPDEHINNEQLKNIKVIGKVFWYSVLL” the “soluble on expression in E. coli” value was “not soluble”. For “MGSDKIHHHHHHMKTVIIVQARMTSTRLPGKVLKKVLDKPLLEYQIERLKRVKLADEIVIATTINSTDLPIIELCDRLSIPYFLGSEEDVLTRYYGAAKEHQADVVVRITSDCPLIDPLVINKVIQFFLDYRHECDYVSNSLERTYPRGMDTEVFSFLALHQAFVEAIAQPDREHVTPFIYMHPERYRLAQVVYSENQSSHRWTVDTADDFELIKRIIETLYPEIPKFTLEDCLDLFREYPDWSLINAHVEQKKYAA”, the “soluble on expression in E. coli” value was “not soluble”. In the case of “MGSDKIHHHHHHMKVALRKTIGERLLELAKQDEKIVVVTSDARGSAAIADFFKVFPERSIEVGIAEQTAAGVAAGLALCGKKAWVFGPACFYSARNLEQIKNDIAYSDANVKIVAVSGGVSYGPLGSTHHALHDVAVMRAIPNLKVLLPSDAVLAAAILEQLLKDEKPVYMRTGRNPVPVIYSRDEKFEVGRAITLKEGNDITIIATGEVVWRALEAAKILEKEGISARVIDMFTVKPLDEEAVFRAARETGRIVTVEEHSIFGGLGGAVAEFLSQNLPTPMKILGIPDEYPVTGTQDEVLKHYGLAPEGIAKTVLEWFKEGN”, the “soluble on expression in E. coli” value is reported as “not soluble”. With “MGSDKIHHHHHHMKVKIGDLTKIKTGKLDANVSSEDGKYPFFTCSKEPLKISTYSYDCECVLVAGNGDLNVKYYNGKFDAYQRTYIIEANGSGKLYMPYLYYFMEDYIDELRKQAIGGVIKYIKLANLTDALIELPSVDEQKSIVEILKKVKGILDKRNDEIRELDNLIKARFVEMFGDPRSNPFGFEKKRLKDTCKVITGNTPSRAIEEYYGDYIEWIKTDNIVSGILNPTQATESLSEKGMNVGRTVEKDSILMACIAGSIASIGRVCITDRTVAFNQQINAVVPEQYNILFLYVLFQMSKDYLVEDINMALKGILSKSKLEEKEFIIPPMDLQEQFSDFVKQVDKSKFDTMTFAPIYAIINLYLHTYFYQGRR” the “soluble on expression in E. coli” value was “not soluble”. In the case of “MGSDKIHHHHHHMKVMKDYKLMAVGQIVADCFDYAKVFNKYGIDFCCNGDVSLADACGKMGIDADCLLEELKQIKSEQSLTLDFKSWPIDLLVDYILKFHHRNIRYQGPQILQLLDRVCEAHAGKHPELYEVRELFQESWIDLNNHLTKEEMVLFPYIYDLFDAVAQHRPIPAFHCGSVSSPISVMMSEHDAEGERFRRISGLTHGYLVPGDACSSYRLLLEMLRTFEDNLHHHIHLENNIVFPKAIELQENCE”, the “soluble on expression in E. coli” value is reported as “not soluble”. In the case of “MGSDKIHHHHHHMKVTLIGIDLAKNVFQVCGINQAGKSVFNRALKRSQLMAFLFKYPDSIIAMEACSGSNYWGRELLTKGFEVRLIPPQHVKPFVKGNKNDRNDAFAICEAALRPNLTFVQPRTLEQTDMILAHRIRERNVENRTSLINQIRGLLNEYGVVIAQGKERLKLAIPELLENADSGLTEIARQHFQALLEEWKQVDRTIKNLEKNIKSQAKLNHQTNRLMGIKGVAEITATAAVAFAGNGAQYHNGRHFAANLGLVPREYSSGGKQKLGKITKRGNNYLRRLLVQGAWSIIRYVGNSTDRMSVWAKKLIERRGKHKAAVAVANKLARIIWSMLYNQTEYRAN”, the “soluble on expression in E. coli” value is reported as “not soluble”. In the case of “MGSDKIHHHHHHMKVTLKTLTPLHIGSGEKYPPCNLVVLKEEENKKTAVRLITRKFLEVLRKHPEIKQNISENISKPLSFKEVENVEDGVFYEVSLYSDFSSGKKNPEIPEVVHHPDGSVYVPGSSLKGAVRLALTWHVLRNNRNLLEEFRRNVQKDLQNHKRAFYQTNEFLNGLFRFAPKEINTDYFRFLRVSDSQTLRTQLVVHDVGIFYVARPNTHPRTFPLEFVPINRDFVFDVRFVKEEYDYFLTHVRKRYGVELPGSIEEIFSIVNEFYSEVFKFERERFKKAKENFEKLDTSKIEERFQKIEKVLQSKKYVLIHIGYGGGLMANSLFILLDEETRKQVRNIIKYHKDDEAPLTRRYLVQSENNSYRVISPIGWCALWLEDSQST”, the “soluble on expression in E. coli” value is reported as “not soluble”. With “MGSDKIHHHHHHMKYSPASETIFVADNQERTMRVEVMEHYGLTQSIEQAGYYETAHHKQLMKDIKGAIREGRLIAVCGVVGSGKTVTLRRLQQQLLDENKIIVARSLSVDKQSVRLATLINALFYDLAQDKQVQIHKQGERRERELQELVKKGKRPVALFVDEAHDLNGNTLTGLKRLMEVVEDGGGRLSVVLAGHPKLRNDLRRPTMEEIGYRTDIFTLDGITGSQREYIQWLLKTSTGKGKPEDILTTEAVDLLAMKLRTPLQVQLHLTLAMEAGYQTGEKPITATLVESVLSRQLDDLEPTLTRHGYRLKDMVEQFDAKPAEIRALFNNQLDPARTAELRDRMLAVGLPI” the “soluble on expression in E. coli” value was “not soluble”. In the case of “MGSDKIHHHHHHMKYTIEEIRQMQEGQTFDCKSILIEPKHLATIIVAMANADGGMIAVGISDKTRRIEGVNQDKEHLNDILRTPLDFCVPSVSVTTDYVPCTDAEGRDNRVLLMHIPASPRLHANQADEVFWRVGDKSRKLTFDERLQLMYDKGERYYEDSTAYDATLDDIDMDAVKAYMKRIGYGKSAMEYLQENKGFVTYKGDVPQVSAACILLFGKHPQTFFPRARVRFIKYFGTEEKVGREMNVIKDVTFDGRILEQIQKTVEYLETQVKEHSYLGEDGIFKTDREYPKFVIQEMVVNSVCHRDYSIKGTEIQIKMFDDRLVFETPGKLPGIVRTDNIRHTHFSRNPKIAEFLKAYDYVKEFGEGVDRMCRELSALGVKEPQYNLVAFIMKATVCAKVLEERQGTNHFDQKRPESDQKSDQMRIILELIKSNPNISRTELSEKTGLHDSSVKRRLKTLVDEGLIQRVGPDKGGQWKVIGSL”, the “soluble on expression in E. coli” value is reported as “not soluble”. With “MGSDKIHHHHHHMLARDKSNLKIEEIRMHKHHEIHRVKPLMPALCRIRQGKKVINWETHSLTVDNNQIILFPCGYEFYIVNYPEAGLYLAEMLYYPIDLIEKFQKFYAITDQIRNTTGFCLPQNPELIYCWEQLKTSISRGFSTQIQEHLAMGVLLSLGAHHVNCLLLSDSKQSLISRCYNLMLSEPRTKWTANKVARYLYISVSTLHRRLASEGISFQSILDDVRLNNALSCYTNDSKTHQRDCQGKWLQVSFSFY” the “soluble on expression in E. coli” value was “not soluble”.
